Laboratory results from patent US20140072613A1, “Compositions and Methods for Treating Cutaneous Scarring” (priority 2012, published 2014).

What was measured:
Test in all cases: biochemical
Format in all cases: biochemical
[1] = target: 266 human kinases (Homo sapiens, UniProt Q9Y5S2); details: MRCKβ(h); 100 μM
Outline: (§1)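 Radiometric filter-binding format: a positively charged substrate takes up radiolabelled phosphate from ATP unless the kinase is inhibited, then is captured on a negatively charged filter membrane. Counts from scintillation are expressed relative to a 100% activity control.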

[2] = target: T1, 266 human kinases (Homo sapiens, UniProt O14920); details: IKKβ(h); 100 μM
T1 sequence (O14920 1-756): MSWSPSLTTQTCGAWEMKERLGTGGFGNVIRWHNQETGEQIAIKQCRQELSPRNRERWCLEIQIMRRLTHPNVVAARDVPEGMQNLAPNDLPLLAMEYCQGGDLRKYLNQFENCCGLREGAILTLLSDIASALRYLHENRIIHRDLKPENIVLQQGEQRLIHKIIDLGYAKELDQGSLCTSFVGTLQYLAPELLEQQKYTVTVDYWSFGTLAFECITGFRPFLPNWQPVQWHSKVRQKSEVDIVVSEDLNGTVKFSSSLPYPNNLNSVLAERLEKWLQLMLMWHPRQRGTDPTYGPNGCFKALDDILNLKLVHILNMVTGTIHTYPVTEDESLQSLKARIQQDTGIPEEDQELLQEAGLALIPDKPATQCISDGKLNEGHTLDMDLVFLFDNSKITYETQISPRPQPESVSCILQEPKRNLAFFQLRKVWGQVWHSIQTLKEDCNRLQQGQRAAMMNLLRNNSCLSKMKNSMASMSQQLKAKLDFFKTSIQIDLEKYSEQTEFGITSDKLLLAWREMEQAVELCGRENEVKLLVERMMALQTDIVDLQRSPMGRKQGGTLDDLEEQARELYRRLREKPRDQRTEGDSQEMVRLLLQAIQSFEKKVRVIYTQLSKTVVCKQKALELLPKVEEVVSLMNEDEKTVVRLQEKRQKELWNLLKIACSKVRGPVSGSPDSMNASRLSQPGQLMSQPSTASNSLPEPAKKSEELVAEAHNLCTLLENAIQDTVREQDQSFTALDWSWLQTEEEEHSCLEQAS
Outline: as §1

[3] = target: T2, 266 human kinases (Homo sapiens, UniProt Q9H2K8); details: TAO3(h); 100 μM
T2 sequence (Q9H2K8 1-898): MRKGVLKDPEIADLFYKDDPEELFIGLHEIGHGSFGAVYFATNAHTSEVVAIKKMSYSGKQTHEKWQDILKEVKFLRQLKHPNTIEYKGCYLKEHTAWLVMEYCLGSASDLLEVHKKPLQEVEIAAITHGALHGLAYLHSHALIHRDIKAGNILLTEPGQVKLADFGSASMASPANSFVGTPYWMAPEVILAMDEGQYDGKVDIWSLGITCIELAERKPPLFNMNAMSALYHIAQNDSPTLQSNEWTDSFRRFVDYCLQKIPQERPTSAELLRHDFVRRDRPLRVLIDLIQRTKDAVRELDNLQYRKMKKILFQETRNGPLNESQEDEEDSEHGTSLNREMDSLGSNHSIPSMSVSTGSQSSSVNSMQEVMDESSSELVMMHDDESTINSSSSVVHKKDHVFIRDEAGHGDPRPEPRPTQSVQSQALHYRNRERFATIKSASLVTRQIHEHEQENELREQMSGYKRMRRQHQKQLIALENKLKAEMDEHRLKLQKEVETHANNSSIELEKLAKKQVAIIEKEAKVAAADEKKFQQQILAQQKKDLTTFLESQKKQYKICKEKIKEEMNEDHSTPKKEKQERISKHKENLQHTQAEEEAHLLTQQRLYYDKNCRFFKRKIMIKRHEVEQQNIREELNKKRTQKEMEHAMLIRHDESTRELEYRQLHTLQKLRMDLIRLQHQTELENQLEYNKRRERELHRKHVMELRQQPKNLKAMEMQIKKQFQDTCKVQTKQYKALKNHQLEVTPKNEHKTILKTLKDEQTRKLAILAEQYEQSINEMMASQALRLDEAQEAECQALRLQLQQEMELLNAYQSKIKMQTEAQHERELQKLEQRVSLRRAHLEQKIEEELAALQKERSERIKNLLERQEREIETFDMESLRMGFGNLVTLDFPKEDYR
Outline: as §1

[4] = target: 266 human kinases (Homo sapiens, UniProt Q86Y07); details: VRK2(h); 100 μM
Outline: as §1

[5] = target: 266 human kinases (Homo sapiens, UniProt P36888, D835Y); details: Flt3(D835Y)(h); 100 μM
Outline: as §1

[6] = target: 266 human kinases (Homo sapiens, UniProt Q9H1R3); details: MLCK(h); 100 μM
Outline: as §1

[7] = target: 266 human kinases (Homo sapiens, UniProt O43318); details: TAK1(h); 100 μM
Outline: as §1

Chain of 266 human kinases (Homo sapiens, UniProt Q9H1R3) (Q9H1R3 whole entry): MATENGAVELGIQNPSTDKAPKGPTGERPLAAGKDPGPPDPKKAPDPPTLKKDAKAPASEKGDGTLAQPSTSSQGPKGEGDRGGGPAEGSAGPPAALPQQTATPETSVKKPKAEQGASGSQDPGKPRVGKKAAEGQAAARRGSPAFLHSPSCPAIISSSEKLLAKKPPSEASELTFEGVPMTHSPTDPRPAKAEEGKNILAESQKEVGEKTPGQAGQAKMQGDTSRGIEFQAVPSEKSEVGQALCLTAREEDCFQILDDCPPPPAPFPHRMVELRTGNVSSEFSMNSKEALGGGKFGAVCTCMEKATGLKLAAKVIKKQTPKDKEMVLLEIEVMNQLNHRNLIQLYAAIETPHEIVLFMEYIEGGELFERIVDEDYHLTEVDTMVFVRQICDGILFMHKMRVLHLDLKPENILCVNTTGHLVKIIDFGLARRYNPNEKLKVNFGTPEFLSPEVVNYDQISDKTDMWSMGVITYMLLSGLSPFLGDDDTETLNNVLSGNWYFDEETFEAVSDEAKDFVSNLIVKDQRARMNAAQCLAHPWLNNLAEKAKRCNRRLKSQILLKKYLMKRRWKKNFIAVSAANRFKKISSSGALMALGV
Chain of 266 human kinases (Homo sapiens, UniProt O43318) (O43318 whole entry): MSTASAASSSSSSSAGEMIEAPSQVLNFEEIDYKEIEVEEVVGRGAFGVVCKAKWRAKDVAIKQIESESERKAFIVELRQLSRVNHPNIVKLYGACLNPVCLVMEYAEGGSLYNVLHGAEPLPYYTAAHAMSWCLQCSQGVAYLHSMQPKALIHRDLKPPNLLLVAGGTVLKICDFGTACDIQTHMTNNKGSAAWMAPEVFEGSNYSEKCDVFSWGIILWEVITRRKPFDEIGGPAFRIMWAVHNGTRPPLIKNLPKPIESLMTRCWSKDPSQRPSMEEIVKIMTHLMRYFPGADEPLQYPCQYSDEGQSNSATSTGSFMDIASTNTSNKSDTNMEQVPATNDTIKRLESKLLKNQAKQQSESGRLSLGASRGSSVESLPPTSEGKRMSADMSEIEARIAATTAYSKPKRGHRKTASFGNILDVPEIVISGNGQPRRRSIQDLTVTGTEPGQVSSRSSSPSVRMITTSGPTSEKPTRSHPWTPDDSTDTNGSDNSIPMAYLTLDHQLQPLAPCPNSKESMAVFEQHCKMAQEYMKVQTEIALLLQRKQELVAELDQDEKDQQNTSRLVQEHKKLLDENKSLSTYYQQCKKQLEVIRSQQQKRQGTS
Chain of 266 human kinases (Homo sapiens, UniProt Q86Y07) (Q86Y07 whole entry): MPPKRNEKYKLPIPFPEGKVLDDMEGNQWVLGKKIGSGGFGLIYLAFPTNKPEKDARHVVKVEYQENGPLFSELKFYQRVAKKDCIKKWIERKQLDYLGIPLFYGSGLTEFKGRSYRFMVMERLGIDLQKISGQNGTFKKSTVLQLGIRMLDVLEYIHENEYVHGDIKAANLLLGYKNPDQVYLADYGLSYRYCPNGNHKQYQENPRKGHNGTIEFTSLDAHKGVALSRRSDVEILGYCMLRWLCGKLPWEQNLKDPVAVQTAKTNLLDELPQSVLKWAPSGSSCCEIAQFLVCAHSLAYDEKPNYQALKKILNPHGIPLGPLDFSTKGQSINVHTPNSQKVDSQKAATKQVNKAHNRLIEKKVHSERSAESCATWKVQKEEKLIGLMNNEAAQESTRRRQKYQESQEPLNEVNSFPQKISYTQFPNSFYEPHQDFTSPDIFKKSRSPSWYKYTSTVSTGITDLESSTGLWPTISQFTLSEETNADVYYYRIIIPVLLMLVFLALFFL
Chain of 266 human kinases (Homo sapiens, UniProt Q9Y5S2) (Q9Y5S2 whole entry): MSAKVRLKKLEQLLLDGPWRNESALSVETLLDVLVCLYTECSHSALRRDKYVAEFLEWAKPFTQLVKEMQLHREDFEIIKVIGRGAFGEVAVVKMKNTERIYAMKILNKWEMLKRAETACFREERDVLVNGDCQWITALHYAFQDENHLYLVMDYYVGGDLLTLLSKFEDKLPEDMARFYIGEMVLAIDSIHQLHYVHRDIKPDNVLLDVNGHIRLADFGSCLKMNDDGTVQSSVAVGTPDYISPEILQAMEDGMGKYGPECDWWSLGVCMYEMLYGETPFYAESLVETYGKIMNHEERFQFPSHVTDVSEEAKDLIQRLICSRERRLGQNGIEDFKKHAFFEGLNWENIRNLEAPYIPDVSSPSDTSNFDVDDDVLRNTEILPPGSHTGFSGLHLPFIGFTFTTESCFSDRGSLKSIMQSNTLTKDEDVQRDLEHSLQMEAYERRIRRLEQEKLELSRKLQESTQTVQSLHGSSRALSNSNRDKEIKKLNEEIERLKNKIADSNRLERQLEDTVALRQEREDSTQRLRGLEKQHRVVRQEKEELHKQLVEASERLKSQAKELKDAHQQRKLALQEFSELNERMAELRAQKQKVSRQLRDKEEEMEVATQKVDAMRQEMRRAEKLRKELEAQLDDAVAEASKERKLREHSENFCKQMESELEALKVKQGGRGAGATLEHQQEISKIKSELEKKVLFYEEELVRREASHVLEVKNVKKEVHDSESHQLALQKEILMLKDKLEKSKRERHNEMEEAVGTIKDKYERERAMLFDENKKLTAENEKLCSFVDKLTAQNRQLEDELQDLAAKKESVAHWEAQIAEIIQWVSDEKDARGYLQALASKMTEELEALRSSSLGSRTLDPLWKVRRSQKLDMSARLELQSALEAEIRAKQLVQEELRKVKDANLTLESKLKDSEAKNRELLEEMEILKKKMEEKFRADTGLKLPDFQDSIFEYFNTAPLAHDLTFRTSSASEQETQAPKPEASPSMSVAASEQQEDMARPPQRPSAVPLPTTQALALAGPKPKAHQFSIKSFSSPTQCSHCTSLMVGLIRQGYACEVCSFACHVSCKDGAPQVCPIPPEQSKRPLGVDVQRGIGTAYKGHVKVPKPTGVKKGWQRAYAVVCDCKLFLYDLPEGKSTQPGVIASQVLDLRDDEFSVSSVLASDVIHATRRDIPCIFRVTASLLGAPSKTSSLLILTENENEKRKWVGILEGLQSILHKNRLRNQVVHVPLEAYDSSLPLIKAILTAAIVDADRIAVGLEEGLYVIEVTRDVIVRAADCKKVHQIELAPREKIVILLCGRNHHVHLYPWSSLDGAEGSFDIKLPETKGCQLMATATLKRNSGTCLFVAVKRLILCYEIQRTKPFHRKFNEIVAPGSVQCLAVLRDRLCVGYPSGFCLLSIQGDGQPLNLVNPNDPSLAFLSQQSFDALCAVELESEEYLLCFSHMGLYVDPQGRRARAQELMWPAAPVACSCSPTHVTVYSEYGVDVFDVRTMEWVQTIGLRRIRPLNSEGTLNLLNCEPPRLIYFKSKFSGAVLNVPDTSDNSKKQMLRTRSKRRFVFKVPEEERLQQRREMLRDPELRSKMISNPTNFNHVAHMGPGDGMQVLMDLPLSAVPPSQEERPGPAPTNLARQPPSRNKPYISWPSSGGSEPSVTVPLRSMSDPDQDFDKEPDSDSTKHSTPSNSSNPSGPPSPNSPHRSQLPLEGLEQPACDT

Row | Sequence | % activity [1] | % activity [2] | % activity [3] | % activity [4] | % activity [5] | % activity [6] | % activity [7]
1 | HRRIKAWLKKIKALARQLGVAA (mammal) [MMI-0500] | −10% | 71% | 12% | 169% | 65% | 0% | –
2 | YARAAARQARAKALNRQLGVA (mammal) [MMI-0200] | – | – | – | – | – | – | 124%
